Substrate in series [1]: CC(C)(COP(=O)(O)OP(=O)(O)OC[C@H]1O[C@@H](n2cnc3c(N)ncnc32)[C@H](O)[C@@H]1O)[C@@H](O)C(=O)NCCC(=O)NCCS
The series can be described thus: purified protein. To be noted: 5 mM GTP varied dephospho-CoA, 5 mM MgCl2, 300 mM KCl, 50 mM Bicine pH 8.0, 80 °C. In kind it is biochemical, Thermococcus kodakarensis.

Substrate in series [2]: Nc1nc2c(ncn2[C@@H]2O[C@H](COP(=O)(O)OP(=O)(O)OP(=O)(O)O)[C@@H](O)[C@H]2O)c(=O)[nH]1
As to the kind of experiment: purified protein. To be noted: 1 mM dephospho-CoA, varied GTP, 5 mM MgCl2, 300 mM KCl, 50 mM Bicine pH 8.0, 80 °C. It counts as biochemical, Thermococcus kodakarensis.

B1: TK1697 protein (Tk-DPCK) (Thermococcus kodakarensis KOD1) (protein)
chain: MKMFFRLTRELRDELKRPLGELVRGPIPEPYLKVRGELEKHPVVTVGDVVTENVLKIGVKPIIALYDLKTKRKEYSPEIEDTAVFLTVTNPPGTITKALLDTVRKAFGLAERGRNVHILVSGEEDLAAIPAVLYAPLGTLVLYGQPDEGVVLIKVTPECKRRCAKILASMEVVRDGD
notes: full-length gene in pET21a(+) (NdeI/EcoRI, own stop codon, untagged), expressed in E. coli BL21-CodonPlus(DE3)-RIL; calculated 19,657 Da
As a reminder, the Km is the substrate concentration at which the rate is half of its maximum. The term Vmax denotes the top rate of the reaction or transport when substrate is in excess. Usually kcat stands for the number of substrate molecules converted per active site and unit of time at saturation. Broadly, the kcat/Km is the second-order rate constant that governs catalysis at low substrate concentration. As to B1, in the series “purified protein [1]”, the Km stood at 140 ± 20 µM, the Vmax was determined as 17 µmol/min/mg, the catalytic constant (kcat) came out at 5.57 s⁻¹ and the kcat/Km was found to be 40400 M⁻¹ s⁻¹. Besides, in the series “purified protein [2]”, the Km turned out to be 260 ± 60 µM, the Vmax stood at 20.4 µmol/min/mg, the kcat was determined as 6.68 s⁻¹ and the kcat/Km worked out at 25700 M⁻¹ s⁻¹.

The values are drawn from article PMC6650551, “Identification of Dephospho-Coenzyme A (Dephospho-CoA) Kinase in Thermococcus kodakarensis and Elucidation of the Entire CoA Biosynthesis Pathway in Archaea” (mBio, 2019).
